Source: PMC5689087 (Structure (London, England : 1993), 2017)
Blank lines part the entries; values can stand above or below the binder they belong to. Where no end group is shown, it is not given here. The star is where a group is joined. FITC = O=C1OC2(c3ccc(O)cc3Oc3cc(O)ccc32)c2ccc(NC(=S)*)cc21

What was measured:
[1] = target: human αVβ3 integrin ectodomain (purchased, lyophilized) (human, UniProt P06756 31-992; P05106 27-718); test: SEC
[2] = target: human αVβ3 integrin ectodomain (purchased, lyophilized) (human, UniProt P06756;P05106); test: SPR
human αVβ3 integrin ectodomain (purchased, lyophilized) (human, UniProt P06756;P05106), sequence (P06756 31-992, chain 1 of 2): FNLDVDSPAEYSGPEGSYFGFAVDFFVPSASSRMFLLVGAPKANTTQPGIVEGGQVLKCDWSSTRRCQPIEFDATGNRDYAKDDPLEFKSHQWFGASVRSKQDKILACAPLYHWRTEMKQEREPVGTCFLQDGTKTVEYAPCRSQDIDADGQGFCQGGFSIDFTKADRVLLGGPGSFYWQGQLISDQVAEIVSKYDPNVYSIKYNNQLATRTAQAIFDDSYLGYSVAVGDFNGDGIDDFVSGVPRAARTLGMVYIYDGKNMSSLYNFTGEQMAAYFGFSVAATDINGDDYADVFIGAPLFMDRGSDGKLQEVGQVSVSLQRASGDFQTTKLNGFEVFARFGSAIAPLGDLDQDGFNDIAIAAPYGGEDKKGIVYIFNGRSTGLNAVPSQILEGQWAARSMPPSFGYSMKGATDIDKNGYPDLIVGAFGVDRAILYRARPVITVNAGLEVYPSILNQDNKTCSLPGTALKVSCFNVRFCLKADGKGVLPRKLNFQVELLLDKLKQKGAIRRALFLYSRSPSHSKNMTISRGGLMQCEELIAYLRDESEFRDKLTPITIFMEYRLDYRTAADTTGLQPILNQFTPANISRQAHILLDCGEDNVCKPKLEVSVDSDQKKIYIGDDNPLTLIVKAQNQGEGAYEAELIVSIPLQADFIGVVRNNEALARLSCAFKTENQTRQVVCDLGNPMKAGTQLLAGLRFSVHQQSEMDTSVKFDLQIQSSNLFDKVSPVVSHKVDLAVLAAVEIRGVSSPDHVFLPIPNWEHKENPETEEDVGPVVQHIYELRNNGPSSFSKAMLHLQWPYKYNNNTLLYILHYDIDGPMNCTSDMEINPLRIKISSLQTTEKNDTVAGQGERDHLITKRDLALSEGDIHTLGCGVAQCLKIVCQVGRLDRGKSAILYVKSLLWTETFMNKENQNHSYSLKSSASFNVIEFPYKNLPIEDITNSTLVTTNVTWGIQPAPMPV
human αVβ3 integrin ectodomain (purchased, lyophilized) (human, UniProt P06756;P05106), sequence (P05106 27-718, chain 2 of 2): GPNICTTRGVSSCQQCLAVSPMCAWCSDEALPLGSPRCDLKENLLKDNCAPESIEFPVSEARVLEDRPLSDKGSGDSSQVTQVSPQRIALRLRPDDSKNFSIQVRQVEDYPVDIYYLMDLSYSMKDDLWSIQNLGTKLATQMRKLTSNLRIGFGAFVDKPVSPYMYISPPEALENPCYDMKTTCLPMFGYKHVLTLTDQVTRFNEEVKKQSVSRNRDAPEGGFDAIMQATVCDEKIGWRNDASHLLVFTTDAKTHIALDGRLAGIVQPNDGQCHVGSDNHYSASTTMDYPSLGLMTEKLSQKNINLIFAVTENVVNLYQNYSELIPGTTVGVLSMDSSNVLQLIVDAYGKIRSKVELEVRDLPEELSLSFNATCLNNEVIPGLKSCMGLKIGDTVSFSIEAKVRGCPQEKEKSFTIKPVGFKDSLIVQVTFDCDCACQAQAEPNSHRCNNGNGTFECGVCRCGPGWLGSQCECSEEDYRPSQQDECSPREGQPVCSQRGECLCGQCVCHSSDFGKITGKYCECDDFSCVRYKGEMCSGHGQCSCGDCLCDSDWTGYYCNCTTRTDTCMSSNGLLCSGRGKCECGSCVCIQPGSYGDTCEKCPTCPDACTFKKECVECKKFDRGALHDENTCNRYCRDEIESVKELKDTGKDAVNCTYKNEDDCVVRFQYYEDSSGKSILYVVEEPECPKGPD

human αVβ3 integrin ectodomain (purchased, lyophilized) (human, UniProt P06756 31-992; P05106 27-718), sequence (P06756 31-992, chain 1 of 2): as the sequence (P06756 31-992, chain 1 of 2) above
human αVβ3 integrin ectodomain (purchased, lyophilized) (human, UniProt P06756 31-992; P05106 27-718), sequence (P05106 27-718, chain 2 of 2): as the sequence (P05106 27-718, chain 2 of 2) above

binding result [1]: binds
Binder: {FITC}-GRGDSPK [FITC-GRGDSPK peptide]

Kd [2]: 23 nM
koff [2]: 0.0034 s⁻¹
kon [2]: 150000 M⁻¹ s⁻¹
B1: Fab LM609 (recombinant antigen-binding fragment of the mouse monoclonal antibody LM609) (Fab, V domains shown)
VH: EVQLEESGGGLVKPGGSLKLSCAASGFAFSSYDMSWVRQIPEKRLEWVAKVSSGGGSTYYLDTVQGRFTISRDNAKNTLYLQMSSLNSEDTAMYYCARHNYGSFAYWGQGTLVTVSA
VL: ELVMTQTPATLSVTPGDSVSLSCRASQSISNHLHWYQQKSHESPRLLIKYASQSISGIPSRFSGSGSGTDFTLSINSVETEDFGMYFCQQSNSWPHTFGGGTKLEIK
